These results are taken from patent US20050148511A1.

Test [1] addresses FGFR3IIIc expressed on FDCP cells. In words: cell-based or functional assay.
Test [2] addresses FGFR1 expressed on FDCP cells. The test is described as follows: cell-based or functional assay.

For the substance FGF2(3,5Q)-N111G (ligand), the results for the EC50 (effective concentration), mitogenicity on FGFR-transfected FDCP cells in test [1] and in test [2] were 0.3 to 0.65 ng/mL and 0.35 to 1 ng/mL, respectively.
The like results for “wild type FGF-2 (from UniProt P09038 1-155) (ligand)” were, in that order, 4.2 ng/mL and 2.65 ng/mL.
